Test results as given in the nanobody polyreactivity screen of Harvey et al. (2022).

Assay: yeast display, Sf9 membrane polyspecificity reagent, FACS + sequencing; frameworks hold sequencing errors
Outline: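 Polyreactivity labels are assigned by the sorting gate from which each nanobody was recovered. The gates were low and high (top ~1%), set on anti-HA fluorescence for expression and streptavidin fluorescence for reagent binding. Before sorting, galactose-induced (36–48 hours) yeast display cells were stained for 1 hour at 4 °C with 10% biotinylated, detergent-solubilized Sf9 membrane reagent.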

Row | Sequence | polyreactivity (PSR sort gate)
1 | QVQLVESGRGLVQAGGSLRLSCAASGSTFVKYAMGWYRPAPGKERELVAAMNRSGASTYYADSVKGRFTISRDNAKNTVYLQMNSLKPEDTAVYYCAARFSWLGYYWGQGTQVTVSS | high polyreactivity
2 | QVQLVESGRGLVQAGGSLRLSCAASGSTFYANTMGWYRQAPGKERELVAAISQSGGSTYYADSVKGRFTISRDNAKNTVYLQMNSLKPEDTAVYYCAARRLPRKERKLYYWGQGTQVTVSS | high polyreactivity
3 | QVQLVESGRGLVQAGGSLRLSCAASGSTFYRYAMGWYRQAPGKERELVAGITGSGGRTYYADSVKGRFTISRDNAKNTVYLQMNSLKPEDTAVYYCNAYPSSSLFDYWGQGTQVTVSS | low polyreactivity
4 | QVQLVESGRGLVQAGGSLRLSCAASGSTLYAYAMGWYRQAPGKESELVAAIRRGGRTNYADSVKGRFTISRDNAKNTVYLQMNSLKPEDTAVYYCAARGSKPYSNRLLDYWGLGTQVTVSS | high polyreactivity
5 | QVQLVESGRGLVQAGGSLRLSCAASGSTRRYVMGWYRQAPGKERELVAVISRGGSTYYADSVKGRFTISRDNAKNSVYLQMNSLKPEDTAVYYCNGQPVIPRGGDYWGQATQVTVSS | high polyreactivity
6 | QVQLVESGRGLVQAGGSLRLSCAASGVIFSIYAMGWYRQAPGKERELVAAISTSGGSTYYADSVKGRFTISRDNAKNTVYLQMNRLKPEDTAVYYCNARRGFYWSWRGRYISGDYWGQGTQVTVSS | high polyreactivity
7 | QVQLVESGRGLVQAGGSLRLSCAGSGSIFEGYVMGWSRQAPGKEMELVAAITSGGGSTYYADSVKGRFTSSRDNAKNTVYLQMISVKPVDTALYYCNAVYRWVYRSYEYWGQGTQGTVSS | high polyreactivity
8 | QVQLVESGRGLVQAGGSLRLSCASSGRIFARNAMGWYRKAPGQEREFVAAITFSGGSTYYAESVKGRFTISRDNAKNTVYLQMNSLKPEDTAVYYCAARSFDDWGQGTQVTVSS | high polyreactivity
9 | QVQLVESGRGLVQAGGSLRLSCDSSGLTFTYNAMGWYRQAPGKERELVAVISYGGGSTYYADSVKGRFTISRDNAKNTVYLQMNSLNPEDNAVYYCAAVYGGYLYYYGGYAEYDYWGQGTQVTVSS | low polyreactivity
10 | QVQLVESGRGLVQAGGSLRLSFAASGITFGPNEMGWYRQAPGKERELVAAISKSGGTTYYADSVKGRFTISRDNAKNTDYLQMNSLKPEDTAVYYCAARCYPYYASFRYDYWGQGTQVTVSS | high polyreactivity
11 | QVQLVESGRGLVQAGGTLRLSCAASGSTFNKYAMGWYRQAPGKERELVAAIRSNGVRTYYADSVKVRLTISRDNAKNTVYLQMNSLNPEDTAVYYCNKRYTYRYDYWGQGTQVTVSS | high polyreactivity
12 | QVQLVESGVALVQAAGSLRLRCAAYGSTFSYNAMGWYRQATGKERELVAAISGSGGTTYYADSVKGRFTISRDNAKNTVYLQMNSLKPEDTAVYYCAAELTRYRYFYHKRPMDYWGQGTQVTVSS | low polyreactivity
13 | QVQLVESGVCLDQAGGSLRLSCAASGRTFDYNAMGWYSQAPGKERELVAAIDSDGSTNYADSVKGRFTISRDNAKNTVYLQMNSLKPEDTAVYYCAASTLVVWKPGWQVEYGYWGQGTQVTVSS | low polyreactivity
14 | QVQLVESGVCLVQAGGSLRLSCAASGRIFYNYAMGWYRQAPGKERELVADISSSGTLTYYSDSVKGRFTISRDNAKNTVYLHMNSLKPEDTAVYYCAARYWFRFQYDYWGQGTQLTVSS | high polyreactivity
15 | QVQLVESGVGIVQAGGSLRLSCAASGFTFSSNAMGWYSQAPGKEREFVADISIIGGDTTYADSVKGRFTISRDNAKNTVYFQMNSLKAEDTADYYCIAKPPGWFWGGFSYNRYYYWGQGTQVTVSS | low polyreactivity
16 | QVQLVESGVGIVQAGGSLRLSCAASGRIFARNAMVWYRHAPGKERELVATIRVGGGSTYYADSVKGRFTISRDNAKNTVYLQMNSLKPEDTAVYYCAVRQLYSYPGDRRGYYWGQGTQVTVSS | low polyreactivity
17 | QVQLVESGVGIVQAGGSLRLSCAASGRISYFNAMGWYRQAPGKERELVAAIRRSGGITYYADSVKGRFTISRDNAKNTVYLQMNSLKPEDTAVYYFATERYSWAERDFGYWGQGTLVTVSS | low polyreactivity
18 | QVQLVESGVGLDQAGGSLRLSCAASGSTFFVNAMGWYRQAPGKEMELVAAISTSGGRTYYADSVKGRFRISRDNAKNNLYLQMKSLKPEDTAVYYGAAVSLSGGYGEYDYWGQGTKVTVSS | high polyreactivity
19 | QVQLVESGVGLGQAGGSLRLSCAASGRTYWRYAMGWYRQAPGKETELVASINWNGGSTYYADSVKGRFTNSRDNAKNTVYLQMNSLKPEDTAVYYCAALRWPVYLFDYWGQGTQVTVSS | high polyreactivity
20 | QVQLVESGVGLVQAGGILRLSCAASGSIFWPNAMGWYRHAPGKERELVAGISYSGGRTYYADSVKARFTISRDNEKNTVYLQMNSLKPEDTAVYYCTARRSSGYGYWGQGTHVTVSS | high polyreactivity
21 | QVQLVESGVGLVQAGGSHRLSCSASGSIIEENSMGWYRQAPGKERELVAAITIGGRTNYADSVKGRFTISRDNAKNTVYLQMNSLKPEDTAVYYCAADLSSNKYFRFWTRYYYWGQGTQVTVSS | low polyreactivity

Row | Sequence | polyreactivity (PSR sort gate)
22 | QVQLVESGVGLVQAGGSLLLSCSSSGRIFDLNAMGWYRQAPGKERELVAVIDRDGSTYYADSVKGRFTISRDNAKNTVYLQMNSLKPEDTAVYYCNKYWYSRHVRYWAYYAEQRYDYWGQGTQVTVSS | low polyreactivity
23 | QVQLVESGVGLVQAGGSLRISCAASRSTFWNNCMGWYRQAPGKERDLVAAITVRGGSTYYADSVKGRFTISRDNAKNTVYLQMNSLKPEDTAVYFCAADRWLYSWFFNYDQGDYWGQGTQVSVSS | low polyreactivity
24 | QVQLVESGVGLVQAGGSLRLICAASGFIFFGNAMGWYRQAPGKERQLVAVITWSGGSTYADSVKGRFTISRDNAKNTVYLQMNSLKPEDTAVYYCAADQQTWWQYSLINEYDYWGQGTQVTVSS | low polyreactivity
25 | QVQLVESGVGLVQAGGSLRLLCAASGSIFTTYPMGWYRPAPGKERELVAAITSSSGSTYYADSVKGRFTISRDNAKNTVYLQMNSLKPEDTAVYYCNATYSAAVDYWGQGTQVTVSS | low polyreactivity
26 | QVQLVESGVGLVQAGGSLRLRCAASGSILGGNAMGWYRQAPGKERELVAAITFSGGGTYYADSVKGRFTISRDNAKNTVYLQMNSRKPEDTAVYYCNAFAPDYYHVYPAEDYWGQGTQVTVSS | low polyreactivity
27 | QVQLVESGVGLVQAGGSLRLSCAASGFIFGYYTMGWYRQAPGNERELVAAITYRGGSTYYAYSVKGRFTISRDNAKNTVYLQMNRLKPEDTAVYYCAIRTNVGHDSWGQGTEVTVSS | high polyreactivity
28 | QVQLVESGVGLVQAGGSLRLSCAASGFIFYPNAMGWYRQAPGKEREWVAVITGGGSTRYADSVKGRFTISRDNAKNTVYLQMNSLKPEDTAVYYCAVGTVYLTYRGYEYWGQGTQVTVSS | high polyreactivity
29 | QVQLVESGVGLVQAGGSLRLSCAASGFILGQYTMGWYRQAPGKERELVAAISSSGSTNYADSVKGRFTISRDNAKNTVYLQMNSLKPEDTAVYYCNGDGNPDFYYSFYDEYDYWGQGTQVTVSS | low polyreactivity
30 | QVQLVESGVGLVQAGGSLRLSCAASGFSFAVYGMGSYIQAPGKQRELVAAISTGDSTKYADSVKARFTISRDNAKNTVYLQKNSLKPEDTEVYYCAARIPWSPWLGYWGQGTQVTVST | high polyreactivity
31 | QVQLVESGVGLVQAGGSLRLSCAASGFTFCPYDKGWYRQAPGKERELVAVIIGGDSTNYADSVKGRFTISRDNAKNTVYLLMNSLKPEDTAVYYCASDYIDRVGWMDYWGQGTQVTVSS | low polyreactivity
32 | QVQLVESGVGLVQAGGSLRLSCAASGFTFNYNAMGWYRQAPGKERELVADISRSGGSTYYADSVKGRFTISRDNAKNTVYLQMNSLKPEDTPVYYCAAVRAIGKYGYWGHGTQVTVSS | high polyreactivity
33 | QVQLVESGVGLVQAGGSLRLSCAASGITFEGYAMGWYRQAPGKERELVAAIRSSGTSTYYADSVKGRFTMSRDNAKNTVYLQMNSLKPEDTAVYYCNRARSSSRYDYWGQGTQVTVSS | low polyreactivity
34 | QVQLVESGVGLVQAGGSLRLSCAASGLILANYAMGWYRQAPGKERELVAAISSSGGSTYYADSVKGRFTISRDNAKNTVYLQMNSLKPEDTAVYYCAAYPLYRRRWTGDYWGQGTQVTVSS | high polyreactivity
35 | QVQLVESGVGLVQAGGSLRLSCAASGLILYTYAMGWYRQAPGKESELVAAINSGGRTNYADSVKGRFTISRDNAKNSVYLQMNSLKPEDTAVYYCAADYGSRVRGFNYWGQGTQVTVSS | low polyreactivity
36 | QVQLVESGVGLVQAGGSLRLSCAASGLTFVDNVMGWYRQAPRTERELVADISSSGGSTYADSVKGRFTISRDNAKNTVYFQMNSLKPEDTAVYYCAAGDDSSGEQVDYWGQGTQVTVSS | low polyreactivity
37 | QVQLVESGVGLVQAGGSLRLSCAASGLTFYSYAMGWSRQAPGKERELVATISRNGGPTRYADSVKGRFTISRDNAKNTVYLQMNSLKPEDTAVYYCTYVQSGEYDYWGQGTQVTVSS | high polyreactivity
38 | QVQLVESGVGLVQAGGSLRLSCAASGNTFGKYAMGWYRQAPGTERELVATITRRGGSTYYADSVKGRFTISRDKAKNSVYLQMNSLKPEDTAVYYCNRAVTYVTYVYWGQGTQVTVSS | high polyreactivity
39 | QVQLVESGVGLVQAGGSLRLSCAASGRIFNDNAMGWYSQAPGKERELVAAISTGGSTNYADSVKWRFTISRDNAKNTVYLQMNSLKPEDTEVYYCAADHPVTYETSKFDYWGQGTQVTVSS | low polyreactivity
40 | QVQLVESGVGLVQAGGSLRLSCAASGRIFNRYAMGWYRQAPGKERELVAAITGSGGRTYYADSVKGRFTISRDNAKNTVYVVRISMKPEDTAVYFCAKYYPEYPAYGRGDYWGQGTQVTVSS | low polyreactivity
41 | QVQLVESGVGLVQAGGSLRLSCAASGRIFNSYAMGWYRQAPGKERELVAAISRNGGITYYADSVKGRFTISRDNAKNTVYLQMNSLKPEDTAVYYCAADGLTPKAIWTSDYWGQGTQVTVSS | high polyreactivity
